Measured values: the RNAGym collection of RNA variant scans (doi:10.1021/acssynbio.7b00057)

B1: Pistol ribozyme (parent)
chain: GGGUCGUUGUUCCAUAAUCGCGUGGAUAUGGCACGCAAGUUUCUACCGGGCACCGUAAAUGUCCGACUGGAGCCGUUCGGGCGGCUAUAAACAGACCUCAGGCCCGAAGCGUGGCGGCACCUGCCGCCGGUGGUAAAAAAGAUCGGAAGAGCACACGUCU

Variants of: B1
Assay: aptazyme ON/OFF ratio, guanine; higher = stronger switching; co-transcriptional cleavage with and without guanine

Point of comparison: GGGUCGUGUGCAAAUAAUCGCGUGGAUAUGGCACGCAAGUUUCUACCGGGCACCGUAAAUGUCCGACUGGAGCCGUUCGGGCGGCUAUAAACAGACCUCAGGCCCGAAGCGUGGCGGCACCUGCCGCCGGUGGUAAAAAAGAUCGGAAGAGCACACGUCU, “aptazyme ON/OFF ratio” value 1.02. Against it:
- GGGUCGUGUGUUUAUAAUCGCGUGGAUAUGGCACGCAAGUUUCUACCGGGCACCGUAAAUGUCCGACUGGAGCCGUUCGGGCGGCUAUAAACAGACCUCAGGCCCGAAGCGUGGCGGCACCUGCCGCCGGUGGUAAAAAAGAUCGGAAGAGCACACGUCU — higher, 1.06
- GGGUCGUGUGUUAAUAAUCGCGUGGAUAUGGCACGCAAGUUUCUACCGGGCACCGUAAAUGUCCGACUGGAGCCGUUCGGGCGGCUAUAAACAGACCUCAGGCCCGAAGCGUGGCGGCACCUGCCGCCGGUGGUAAAAAAGAUCGGAAGAGCACACGUCU — higher, 1.03
- GGGUCGUGUGUUGAUAAUCGCGUGGAUAUGGCACGCAAGUUUCUACCGGGCACCGUAAAUGUCCGACUGGAGCCGUUCGGGCGGCUAUAAACAGACCUCAGGCCCGAAGCGUGGCGGCACCUGCCGCCGGUGGUAAAAAAGAUCGGAAGAGCACACGUCU — the same, 1.02
- GGGUCGUGUGACCAUAAUCGCGUGGAUAUGGCACGCAAGUUUCUACCGGGCACCGUAAAUGUCCGACUGGAGCCGUUCGGGCGGCUAUAAACAGACCUCAGGCCCGAAGCGUGGCGGCACCUGCCGCCGGUGGUAAAAAAGAUCGGAAGAGCACACGUCU — higher, 1.09
- GGGUCGUGUGCCCAUAAUCGCGUGGAUAUGGCACGCAAGUUUCUACCGGGCACCGUAAAUGUCCGACUGGAGCCGUUCGGGCGGCUAUAAACAGACCUCAGGCCCGAAGCGUGGCGGCACCUGCCGCCGGUGGUAAAAAAGAUCGGAAGAGCACACGUCU — the same, 1.02
- GGGUCGUGUGCCAAUAAUCGCGUGGAUAUGGCACGCAAGUUUCUACCGGGCACCGUAAAUGUCCGACUGGAGCCGUUCGGGCGGCUAUAAACAGACCUCAGGCCCGAAGCGUGGCGGCACCUGCCGCCGGUGGUAAAAAAGAUCGGAAGAGCACACGUCU — the same, 1.02
- GGGUCGUGUGAGUAUAAUCGCGUGGAUAUGGCACGCAAGUUUCUACCGGGCACCGUAAAUGUCCGACUGGAGCCGUUCGGGCGGCUAUAAACAGACCUCAGGCCCGAAGCGUGGCGGCACCUGCCGCCGGUGGUAAAAAAGAUCGGAAGAGCACACGUCU — higher, 1.04
- GGGUCGUGUGAGAAUAAUCGCGUGGAUAUGGCACGCAAGUUUCUACCGGGCACCGUAAAUGUCCGACUGGAGCCGUUCGGGCGGCUAUAAACAGACCUCAGGCCCGAAGCGUGGCGGCACCUGCCGCCGGUGGUAAAAAAGAUCGGAAGAGCACACGUCU — higher, 1.05
- GGGUCGUGUGAGGAUAAUCGCGUGGAUAUGGCACGCAAGUUUCUACCGGGCACCGUAAAUGUCCGACUGGAGCCGUUCGGGCGGCUAUAAACAGACCUCAGGCCCGAAGCGUGGCGGCACCUGCCGCCGGUGGUAAAAAAGAUCGGAAGAGCACACGUCU — higher, 1.17
- GGGUCGUGUGCGGAUAAUCGCGUGGAUAUGGCACGCAAGUUUCUACCGGGCACCGUAAAUGUCCGACUGGAGCCGUUCGGGCGGCUAUAAACAGACCUCAGGCCCGAAGCGUGGCGGCACCUGCCGCCGGUGGUAAAAAAGAUCGGAAGAGCACACGUCU — higher, 1.03
- GGGUCGUGUGCGUAUAAUCGCGUGGAUAUGGCACGCAAGUUUCUACCGGGCACCGUAAAUGUCCGACUGGAGCCGUUCGGGCGGCUAUAAACAGACCUCAGGCCCGAAGCGUGGCGGCACCUGCCGCCGGUGGUAAAAAAGAUCGGAAGAGCACACGUCU — the same, 1.02
- GGGUCGUGUGCGAAUAAUCGCGUGGAUAUGGCACGCAAGUUUCUACCGGGCACCGUAAAUGUCCGACUGGAGCCGUUCGGGCGGCUAUAAACAGACCUCAGGCCCGAAGCGUGGCGGCACCUGCCGCCGGUGGUAAAAAAGAUCGGAAGAGCACACGUCU — higher, 1.04
- GGGUCGUGUGCAGAUAAUCGCGUGGAUAUGGCACGCAAGUUUCUACCGGGCACCGUAAAUGUCCGACUGGAGCCGUUCGGGCGGCUAUAAACAGACCUCAGGCCCGAAGCGUGGCGGCACCUGCCGCCGGUGGUAAAAAAGAUCGGAAGAGCACACGUCU — the same, 1.02
- GGGUCGUGUGCAUAUAAUCGCGUGGAUAUGGCACGCAAGUUUCUACCGGGCACCGUAAAUGUCCGACUGGAGCCGUUCGGGCGGCUAUAAACAGACCUCAGGCCCGAAGCGUGGCGGCACCUGCCGCCGGUGGUAAAAAAGAUCGGAAGAGCACACGUCU — higher, 1.03
- GGGUCGUGUGUCAAUAAUCGCGUGGAUAUGGCACGCAAGUUUCUACCGGGCACCGUAAAUGUCCGACUGGAGCCGUUCGGGCGGCUAUAAACAGACCUCAGGCCCGAAGCGUGGCGGCACCUGCCGCCGGUGGUAAAAAAGAUCGGAAGAGCACACGUCU — higher, 1.04
- GGGUCGUGUGUCGAUAAUCGCGUGGAUAUGGCACGCAAGUUUCUACCGGGCACCGUAAAUGUCCGACUGGAGCCGUUCGGGCGGCUAUAAACAGACCUCAGGCCCGAAGCGUGGCGGCACCUGCCGCCGGUGGUAAAAAAGAUCGGAAGAGCACACGUCU — higher, 1.03
- GGGUCGUGUGUCUAUAAUCGCGUGGAUAUGGCACGCAAGUUUCUACCGGGCACCGUAAAUGUCCGACUGGAGCCGUUCGGGCGGCUAUAAACAGACCUCAGGCCCGAAGCGUGGCGGCACCUGCCGCCGGUGGUAAAAAAGAUCGGAAGAGCACACGUCU — higher, 1.04
- GGGUCGUGUGCUGAUAAUCGCGUGGAUAUGGCACGCAAGUUUCUACCGGGCACCGUAAAUGUCCGACUGGAGCCGUUCGGGCGGCUAUAAACAGACCUCAGGCCCGAAGCGUGGCGGCACCUGCCGCCGGUGGUAAAAAAGAUCGGAAGAGCACACGUCU — higher, 1.03
- GGGUCGUGUGCUUAUAAUCGCGUGGAUAUGGCACGCAAGUUUCUACCGGGCACCGUAAAUGUCCGACUGGAGCCGUUCGGGCGGCUAUAAACAGACCUCAGGCCCGAAGCGUGGCGGCACCUGCCGCCGGUGGUAAAAAAGAUCGGAAGAGCACACGUCU — higher, 1.03
- GGGUCGUGUGCUAAUAAUCGCGUGGAUAUGGCACGCAAGUUUCUACCGGGCACCGUAAAUGUCCGACUGGAGCCGUUCGGGCGGCUAUAAACAGACCUCAGGCCCGAAGCGUGGCGGCACCUGCCGCCGGUGGUAAAAAAGAUCGGAAGAGCACACGUCU — higher, 1.03
- GGGUCGUGUGACUAUAAUCGCGUGGAUAUGGCACGCAAGUUUCUACCGGGCACCGUAAAUGUCCGACUGGAGCCGUUCGGGCGGCUAUAAACAGACCUCAGGCCCGAAGCGUGGCGGCACCUGCCGCCGGUGGUAAAAAAGAUCGGAAGAGCACACGUCU — higher, 1.03
- GGGUCGUGUGACGAUAAUCGCGUGGAUAUGGCACGCAAGUUUCUACCGGGCACCGUAAAUGUCCGACUGGAGCCGUUCGGGCGGCUAUAAACAGACCUCAGGCCCGAAGCGUGGCGGCACCUGCCGCCGGUGGUAAAAAAGAUCGGAAGAGCACACGUCU — higher, 1.04
- GGGUCGUGUGACAAUAAUCGCGUGGAUAUGGCACGCAAGUUUCUACCGGGCACCGUAAAUGUCCGACUGGAGCCGUUCGGGCGGCUAUAAACAGACCUCAGGCCCGAAGCGUGGCGGCACCUGCCGCCGGUGGUAAAAAAGAUCGGAAGAGCACACGUCU — lower, 1.01
- GGGUCGUGUGAAGAUAAUCGCGUGGAUAUGGCACGCAAGUUUCUACCGGGCACCGUAAAUGUCCGACUGGAGCCGUUCGGGCGGCUAUAAACAGACCUCAGGCCCGAAGCGUGGCGGCACCUGCCGCCGGUGGUAAAAAAGAUCGGAAGAGCACACGUCU — higher, 1.03
- GGGUCGUGUGAAAAUAAUCGCGUGGAUAUGGCACGCAAGUUUCUACCGGGCACCGUAAAUGUCCGACUGGAGCCGUUCGGGCGGCUAUAAACAGACCUCAGGCCCGAAGCGUGGCGGCACCUGCCGCCGGUGGUAAAAAAGAUCGGAAGAGCACACGUCU — higher, 1.04
- GGGUCGUGUGAAUAUAAUCGCGUGGAUAUGGCACGCAAGUUUCUACCGGGCACCGUAAAUGUCCGACUGGAGCCGUUCGGGCGGCUAUAAACAGACCUCAGGCCCGAAGCGUGGCGGCACCUGCCGCCGGUGGUAAAAAAGAUCGGAAGAGCACACGUCU — higher, 1.03
- GGGUCGUGUGAGCAUAAUCGCGUGGAUAUGGCACGCAAGUUUCUACCGGGCACCGUAAAUGUCCGACUGGAGCCGUUCGGGCGGCUAUAAACAGACCUCAGGCCCGAAGCGUGGCGGCACCUGCCGCCGGUGGUAAAAAAGAUCGGAAGAGCACACGUCU — higher, 1.06
- GGGUCGUGUGAACAUAAUCGCGUGGAUAUGGCACGCAAGUUUCUACCGGGCACCGUAAAUGUCCGACUGGAGCCGUUCGGGCGGCUAUAAACAGACCUCAGGCCCGAAGCGUGGCGGCACCUGCCGCCGGUGGUAAAAAAGAUCGGAAGAGCACACGUCU — higher, 1.08
- GGGUCGUGUGAUCAUAAUCGCGUGGAUAUGGCACGCAAGUUUCUACCGGGCACCGUAAAUGUCCGACUGGAGCCGUUCGGGCGGCUAUAAACAGACCUCAGGCCCGAAGCGUGGCGGCACCUGCCGCCGGUGGUAAAAAAGAUCGGAAGAGCACACGUCU — higher, 1.03
- GGGUCGUGUGAUGAUAAUCGCGUGGAUAUGGCACGCAAGUUUCUACCGGGCACCGUAAAUGUCCGACUGGAGCCGUUCGGGCGGCUAUAAACAGACCUCAGGCCCGAAGCGUGGCGGCACCUGCCGCCGGUGGUAAAAAAGAUCGGAAGAGCACACGUCU — higher, 1.05
- GGGUCGUGUGAUUAUAAUCGCGUGGAUAUGGCACGCAAGUUUCUACCGGGCACCGUAAAUGUCCGACUGGAGCCGUUCGGGCGGCUAUAAACAGACCUCAGGCCCGAAGCGUGGCGGCACCUGCCGCCGGUGGUAAAAAAGAUCGGAAGAGCACACGUCU — higher, 1.06
- GGGUCGUGUGAUAAUAAUCGCGUGGAUAUGGCACGCAAGUUUCUACCGGGCACCGUAAAUGUCCGACUGGAGCCGUUCGGGCGGCUAUAAACAGACCUCAGGCCCGAAGCGUGGCGGCACCUGCCGCCGGUGGUAAAAAAGAUCGGAAGAGCACACGUCU — higher, 1.05
- GGGUCGUGUGCACAUAAUCGCGUGGAUAUGGCACGCAAGUUUCUACCGGGCACCGUAAAUGUCCGACUGGAGCCGUUCGGGCGGCUAUAAACAGACCUCAGGCCCGAAGCGUGGCGGCACCUGCCGCCGGUGGUAAAAAAGAUCGGAAGAGCACACGUCU — the same, 1.02
- GGGUCGUGUGCGCAUAAUCGCGUGGAUAUGGCACGCAAGUUUCUACCGGGCACCGUAAAUGUCCGACUGGAGCCGUUCGGGCGGCUAUAAACAGACCUCAGGCCCGAAGCGUGGCGGCACCUGCCGCCGGUGGUAAAAAAGAUCGGAAGAGCACACGUCU — higher, 1.03
- GGGUCGUGUGCUCAUAAUCGCGUGGAUAUGGCACGCAAGUUUCUACCGGGCACCGUAAAUGUCCGACUGGAGCCGUUCGGGCGGCUAUAAACAGACCUCAGGCCCGAAGCGUGGCGGCACCUGCCGCCGGUGGUAAAAAAGAUCGGAAGAGCACACGUCU — higher, 1.04
